In one experiment the target is EGFR (Homo sapiens, UniProt P00533). The conditions noted are these: Mullenbach et al., Protein Eng 11:473-480, 1998; cited from earlier work.
Experiment [1] addresses T1, EGFR on NR6 fibroblast cells (Homo sapiens, UniProt P00533).
T1 construct: expressed in transfected cells; host or cells: NR6 fibroblast cells
Kind of experiment: Competition binding of soluble EGF to EGFR on NR6 fibroblast cells (flow cytometry, Alexa-488 labeled wt EGF). The conditions noted are these: competition with Alexa-488 labeled wt EGF, 6 hr at 4° C., read-out: Equilibrium dissociation constants. On the procedure:
(§1) Fluorescence intensity of cell surface labeling was measured by flow cytometry.
as §1
This mutant was tested using one of the binding assays described herein in which binding to EGFR expressed on cells is measured. […] Fluorescence intensity of cell surface labeling was measured by flow cytometry.

These results are taken from patent publication US8247531B2, “Mutant epidermal growth factor polypeptides, nucleic acids, and uses therefor” (priority 2006, dated 2012).

Consider “G12Q: previously described EGF containing a G12Q mutation (Mullenbach et al.) (NSDSECPLSHDQYCLHDGVCMYIEALDKYACNCVVGYIGERCQYRDLKWWELR)”, for which the “increase in affinity for EGFR over wt EGF (previous data)” value in the experiment with EGFR is on record as 5 fold.

On to “NSYSECPLSYDGYCLNDGVCRYIEALDRYACNCVVGYIGERCQYRDLKWWWLR (Mutant of human epidermal growth factor) [clone 107, second generation EGF mutant from the SOSM library]”, for which, in experiment [1], the Kd was 0.13 ± 0.01 nM.
